Reference: US20220396635A1 (UNIVERSIT T STUTTGART, published 2022)

B1: scDb/scFv-Fc (1-2)+3, trivalent trispecific anti-EGFRxanti-HER3×anti-CD3 (other)
chain 1: QVQLQQSGPGLVKPSQTLSLTCAISGDSVSSNRAAWNWIRQSPSRGLEWLGRTYYRSKWYNDYAQSLKSRITINPDTPKNQFSLQLNSVTPEDTAVYYCARDGQLGLDALDIWGQGTMVTVSSGGGGSDIQMTQSPSSLSASVGDRVTITCRASQDIRNYLNWYQQKPGKAPKLLIYYTSRLHSGVPSRFSGSGSGTDFTFTISSLQPEDIATYYCQQGNTLPWTFGQGTKLEIKRGGGGSGGGGSGGGGSQVQLVQSGAEVKKPGSSVKVSCKASGGTFSGYTMNWVRQAPGQGLEWMGLINPYKGVSTYNGKFKDRVTITADKSTSTAYMELSSLRSEDTAVYYCARSGYYGDSDWYFDVWGQGTLVTVSSGGGGSQAGLTQPPAVSVAPGQTASITCGRDNIGSRSVHWYQQKPGQAPVLVVYDDSDRPAGIPERFSGSNYENTATLTISRVEAGDEADYYCQVWGITSDHVVFGGGTKLTVLAAADKTHTCPPCPAPPVAGPSVFLFPPKPKDTLMISRTPEVTCVVVDVSHEDPEVKFNWYVDGVEVHNAKTKPREEQYNSTYRVVSVLTVLHQDWLNGKEYKCKVSNKGLPSSIEKTISKAKGQPREPQVCTLPPSRDELTKNQVSLSCAVKGFYPSDIAVEWESNGQPENNYKTTPPVLDSDGSFFLVSKLTVDKSRWQQGNVFSCSVMHEALHNHYTQKSLSLSPGK
chain 2: EVQLVESGGGLVQPGGSLRLSCAASGFSLTNYGVHWVRQAPGKGLEWLGVIWSGGNTDYNTPFTSRFTISRDNSKNTLYLQMNSLRAEDTAVYYCARALTYYDYEFAYWGQGTTVTVSSGGGGSGGGGSGGGGSDIQLTQSPSFLSASVGDRVTITCRASQSIGTNIHWYQQKPGKAPKLLIKYASESISGVPSRFSGSGSGTEFTLTISSLQPEDFATYYCQQNNNWPTTFGAGTKLEIKRAAADKTHTCPPCPAPPVAGPSVFLFPPKPKDTLMISRTPEVTCVVVDVSHEDPEVKFNWYVDGVEVHNAKTKPREEQYNSTYRVVSVLTVLHQDWLNGKEYKCKVSNKGLPSSIEKTISKAKGQPREPQVYTLPPCRDELTKNQVSLWCLVKGFYPSDIAVEWESNGQPENNYKTTPPVLDSDGSFFLYSKLTVDKSRWQQGNVFSCSVMHEALHNHYTQKSLSLSPGK
notes: Trispecific antibody: 1 = HER3 (3-43), 2 = CD3 (huU3), 3 = EGFR (hu225); also called scDb3-43xhuU3-Fc(hole)Δab + scFvhu225-Fc(knob)Δab
B2: scDb/Fab-Fc (1-2)+3, trivalent trispecific anti-EGFRxanti-HER3×anti-CD3 (other)
chain: B1 chain 1
heavy: EVQLVESGGGLVQPGGSLRLSCAASGFSLTNYGVHWVRQAPGKGLEWLGVIWSGGNTDYNTPFTSRFTISRDNSKNTLYLQMNSLRAEDTAVYYCARALTYYDYEFAYWGQGTTVTVSSASTKGPSVFPLAPSSKSTSGGTAALGCLVKDYFPEPVTVSWNSGALTSGVHTFPAVLQSSGLYSLSSVVTVPSSSLGTQTYICNVNHKPSNTKVDKKVEPKSCGTDKTHTCPPCPAPPVAGPSVFLFPPKPKDTLMISRTPEVTCVVVDVSHEDPEVKFNWYVDGVEVHNAKTKPREEQYNSTYRVVSVLTVLHQDWLNGKEYKCKVSNKGLPSSIEKTISKAKGQPREPQVYTLPPCRDELTKNQVSLWCLVKGFYPSDIAVEWESNGQPENNYKTTPPVLDSDGSFFLYSKLTVDKSRWQQGNVFSCSVMHEALHNHYTQKSLSLSPGK
light: DIQLTQSPSFLSASVGDRVTITCRASQSIGTNIHWYQQKPGKAPKLLIKYASESISGVPSRFSGSGSGTEFTLTISSLQPEDFATYYCQQNNNWPTTFGAGTKLEIKRTVAAPSVFIFPPSDEQLKSGTASVVCLLNNFYPREAKVQWKVDNALQSGNSQESVTEQDSKDSTYSLSSTLTLSKADYEKHKVYACEVTHQGLSSPVTKSFNRGEC
notes: Trispecific antibody: 1 = HER3, 2 = CD3, 3 = EGFR; also called scDb3-43xhuU3-Fc(hole)Δab + Fdhu225-Fc(knob)Δab + VLhu225-CLκ
B3: scDb/scFv-Fc (2-1)+3, trivalent trispecific anti-EGFRxanti-HER3×anti-CD3 (other)
chain 1: QVQLVQSGAEVKKPGSSVKVSCKASGGTFSGYTMNWVRQAPGQGLEWMGLINPYKGVSTYNGKFKDRVTITADKSTSTAYMELSSLRSEDTAVYYCARSGYYGDSDWYFDVWGQGTLVTVSSGGGGSQAGLTQPPAVSVAPGQTASITCGRDNIGSRSVHWYQQKPGQAPVLVVYDDSDRPAGIPERFSGSNYENTATLTISRVEAGDEADYYCQVWGITSDHVVFGGGTKLTVLGGGGSGGGGSGGGGSQVQLQQSGPGLVKPSQTLSLTCAISGDSVSSNRAAWNWIRQSPSRGLEWLGRTYYRSKWYNDYAQSLKSRITINPDTPKNQFSLQLNSVTPEDTAVYYCARDGQLGLDALDIWGQGTMVTVSSGGGGSDIQMTQSPSSLSASVGDRVTITCRASQDIRNYLNWYQQKPGKAPKLLIYYTSRLHSGVPSRFSGSGSGTDFTFTISSLQPEDIATYYCQQGNTLPWTFGQGTKLEIKRAAADKTHTCPPCPAPPVAGPSVFLFPPKPKDTLMISRTPEVTCVVVDVSHEDPEVKFNWYVDGVEVHNAKTKPREEQYNSTYRVVSVLTVLHQDWLNGKEYKCKVSNKGLPSSIEKTISKAKGQPREPQVCTLPPSRDELTKNQVSLSCAVKGFYPSDIAVEWESNGQPENNYKTTPPVLDSDGSFFLVSKLTVDKSRWQQGNVFSCSVMHEALHNHYTQKSLSLSPGK
chain 2: B1 chain 2
notes: Trispecific antibody: 1 = HER3, 2 = CD3, 3 = EGFR; also called scDbhuU3x3-43-Fc(hole)Δab + scFvhu225-Fc(knob)Δab
B4: scDb/Fab-Fc (2-1)+3, trivalent trispecific anti-EGFRxanti-HER3×anti-CD3 (other)
chain: B3 chain 1
heavy: B2 heavy
light: B2 light
notes: Trispecific antibody: 1 = HER3, 2 = CD3, 3 = EGFR; also called scDbhuU3x3-43-Fc(hole)Δab + Fdhu225-Fc(knob)Δab + VLhu225-CLκ

Target: T1, CD3 (UniProt P07766 23-207)
T1 construct: whole, on cells; on cells it stands in the TCR/CD3 complex; also called CD3 on Jurkat cells
Test: flow cytometry, serial dilution on Jurkat cells (CD3-expressing), PE anti-human Fc detection, n = 1
Description: Trivalent, trispecific antibodies were analyzed for their binding to tumor cell lines with different EGFR- and HER3-expression levels (Table 14) by flow cytometry. Adherent cells were washed with PBS and shortly trypsinized at 37° C. Trypsin was quenched with FCS-containing medium and removed by centrifugation (500×g, 5 min.). 1×10⁵ target cells/well (FaDu, LIM1215, SKBR-3, T-47-D, MCF-7 and Jurkat cells) were incubated with a serial dilution of trivalent, trispecific antibodies for 1 h at 4° C. After removing excess of recombinant protein by washing with PBA (PBS, 2% FBS, and 0.02% sodium azide), bound protein was detected using PE-conjugated anti-human Fc mAb (Jackson ImmunoResearch Laboratories Inc). Fluorescence was measured using MACSquant VYB (Miltenyi Biotec) and data were analyzed using FlowJo (Tree Star). Relative median fluorescence intensities (MFI) were calculated as followed: relative MFI=((MFIₛₐₘₚₗₑ-(MFIdetection-MFIcells))/MFIcells).

Row | Binder | EC50 [nM]
1 | B1 | 1.6
2 | B2 | 0.8
3 | B3 | 2.6
4 | B4 | 1.1
